# Measured values reported in the nanobody polyreactivity screen of Harvey et al. (2022).
# Assay: yeast display, Sf9 membrane polyspecificity reagent, FACS + sequencing; frameworks hold sequencing errors
# Procedure, shortened: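 In a synthetic yeast display library (Saccharomyces cerevisiae BJ5465), nanobody expression was induced with galactose for 36–48 hours. FACS gates were set low and high (top ~1%) using anti-HA fluorescence for expression and streptavidin fluorescence for binding of the Sf9 membrane reagent. Each polyreactivity label is drawn from the gate of origin.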
row,Sequence,polyreactivity (PSR sort gate)
1,QVQLVESGGGLVQAGGSLRLSCAASGLIFGGYAMGWYRQAPGKERELVAAISWDDGDTYYADSVKGRFTISRDNAKNTVYLQMNSLKPEDSAVYYCAAESLSGAHGYWGQGTQVTVSS,low polyreactivity
2,QVQHVESGGGLVQAGGSLRLSCAASGRTFYSYAMGWYRQAPGKDRELVAAITSDGGTYYADSVKGRFTISRDNAKNTVYLQMNSLKPDDTAVYYCNTRDLYGYPQVTGYDYWGQGTQVTVSS,low polyreactivity
3,QDQLVESGGGLVQAGGSLRLSCAASGSTFKVYAMGWYRQAPGKERELVAAISASDCSTYYADSVKGRFTISRDNAKNTVYLQMNILKAEDTAVYYCNAAYPEWYAYDYWGQGTQVTVSS,low polyreactivity
4,QLQLVESGGGLVQAGGSLRLSCAASGRIFRKNAMGWYRQAPGKERELVAAITSSGNTYYADSVKGRFTISRDNAKNTVYLQMNSLKTEDTAVYYCAARLKWLNRYGYDYWGQGTQVTVSS,low polyreactivity
5,QVQLVESGGGLVQAGGSLRLSCAASGFIFYDYAMGWYRQAPGKERELVASISWSSGSTYYADSVKGRFTISRDNAKNTVYLQMNSLKPEDTAVYYWAADGYPLQLYNYWGLGTQVTVSS,low polyreactivity
6,HVQLVESGGGLVQAGGSLRLSCAASGFIGIYAMGWYRQAPGKERELVAAITTSGGRTYYADSVKGRFTISRDNAKNTVYLQMNSLKPEDTAVYYCAAPWRLFSLYDYWGQGTQVTVSS,low polyreactivity
7,QVQLVESGGGLVQAGGSLRLSCAASGSIFYHYAMGWYRQAPGKVRELFAAISGSGGSTYYADSVKGRFTISRDNAKNTVYLQMNSLKPEDSAVYYCAADTSRYHYTRYFFDSDYWGQGTQVTVSS,low polyreactivity
8,QVQLVESGGGLVPARGSLRLSCAASGFTFYRYAMGCYRQAPGKERELVAAITSRSGITYYADSVKGRFTISRDNAKNTVYLQMNSLKPEDTAVYYCAAYVYRSTEFDYGYWGQGTQVTVSS,high polyreactivity
9,QVQLVESGGGLVQAGGSLRLSCAASGSTFYYYAMGWYRQAPGKERELVAAIDRDDRTNYADSVKGRFTISRDNAKNTVYLQMNSLKPEDTAVYYCAAVEIYEYDYWGQGTQVTVSS,low polyreactivity
10,QVQRVESGGGLVQAGGSLRLSCAASGRTFLQYAMGWYSQAPGKVREFVAAINWSGGSTYYAASVKRRFTISRDNAKNTVYLPMHSLKPEDTAVYYCAARRVYLGEYDYWGQGTQVTVSS,high polyreactivity
11,QVQLVESGGGLVQAGGSLRLSCAASGSTFGGYAMGWYRQAPGKERELVAAISFDGGSTYADSVKGRFTISRDNAKNTVYLQMNSLKPEDTAVYYCAVKFWLVIQFDYCGQGTQVTVSS,low polyreactivity
12,QVQLVESGGGLVQAGGSLRLSCAATGRIFSIYAMGWYRQAPGKERELVAAISGGGSTYYADSVKGRFTISRDNAKNTVYLQMNSLKPEDTAVYYCAALQSYYRYFGYDYWGQGTQVTVSS,low polyreactivity
13,QVQLEESGGGLVQAGGSLRLSCAASGSTFSYYAKGWYRQAPGKERELVAVISRGGSTNYADSVKGRFTISRDNAKNTVYLQMNSLKPEDTAVYYCAADAIPDSVRYWEYDYWGQGTQVTVSS,low polyreactivity
14,QVQLLESGGGLVQAGGSLRLSCAASGRIFQFYAMGWYRKAPGKERELVAANSVRGGSTYYAHSVKGRFTISRDNEKNTVYLQMNSLKPEDTAVYYCAASKWGGYYYWGQGTQVTVSS,high polyreactivity
15,QVQLVESGGGLVQAGGSLRLSCAASGRTFIPYAMGWYRQAPGKERELVAAISTTAGTTYYADSVKGRFTISRDNAKNTVYLQMNSLKPEDTAVYYCAARRRWYRRYGGDFWGQGTQVTVSS,high polyreactivity
16,QVQLVESGGGLVQAGGSLRLSCAASGSTFLRYTMGWYRQAPGKARELVAAITRSGGSTYYADSVKGRFTISRDTAKNTVYLQMNSLKPEDTAVYYCAKRYRVAYGYWGQGTQVTVSS,high polyreactivity
17,QVQLVESGGGLVQAGGSLRLSCAASGYTQPANGMGLYRQAPGKERELVAAISFIAGSTYYADSVKGRFTISRDNAKNTVYLQMNSLKPEDTAVYYCATQFPPSTIYDYWGQGTQVSVSS,low polyreactivity
18,QVQLVESGGGLVQAGGSLRLSCAASGSIFAWYTMGWYRQAPGKERELVATITRGGSTTYADSVKGRFTISRDNAKITVYLQMNSLKPEDTAVYYCAADWRTKGYDSLGQGTQVTVSS,high polyreactivity
19,QVQLVESGGGLVQAGGSLRLSCAASGNIFFGNAMGWYRQAPGKERELVAVISKRGGSTYYADSVKGRFTISRDNAKNTVYLQMNSLKPEDTAVYYCAKVPTSRGNQLQQDGTKYDYWGQGTQVTVSS,high polyreactivity
20,QVQLVESGGGLVQAGGSLRLSCAASGSIFPAYAMGWYRQAPGTERELVAAITFSGGRTYYADSVKGRFTISRDNAKNTVYLQMNSLKPEDTAVYDCAAYGAPSGTGAKYGYWGQGTQVTVSS,low polyreactivity
21,QVQLVESGGGLVQAGGSLRLSCAASGSIFRSYTMGWYRQAPGKEREFVAAITKRGGSTYYADSVKGRFTISRDNAKNTVYLQMNSLKPEDTAVYYCAAVAGHYYYFRELGYWGQGTQVTVSS,high polyreactivity
22,QVQLVESGGGLVQAGGSLRLSCAASGFIFKGYAKGWYRQAPGKERELVAAINTSGGSTYYAVSVKGRFTISRDNAKNTVYVQMNSLKPEDTAVYYCNVRNRSRPYLPFWPDDNWGQGTQVTVSS,high polyreactivity
